Source: the Human Domainome abundance scans (Beltran et al. 2025)
± gives the uncertainty stated by the source.

B1: Death-inducer obliterator 1, residues 263 to 321; numbered along this chain, Q9BTC0 (parent)
chain: GYDPNALYCICRQPHNNRFMICCDRCEEWFHGDCVGISEARGRLLERNGEDYICPNCTI

Variants of: B1
Experiment: abundance fitness (aPCA) (normalised: wild type 0, dead -1); higher = more abundant; growth selection in yeast, the domain comes from the species named
Conditions: Homo sapiens

Variant | abundance fitness
GYDPNALYCICRQPHNNRFMICCDRKEEWFHGDCVGISEARGRLLERNGEDYICPNCTI | -0.863 ± 0.24
GYDPNALYCICRQPHNNRFMICCDRWEEWFHGDCVGISEARGRLLERNGEDYICPNCTI | -0.416 ± 0.19
GYDPNALYCICRQPHNNRFMICCDRMEEWFHGDCVGISEARGRLLERNGEDYICPNCTI | -0.926 ± 0.14
GYDPNALYCICRQPHNNRFMICCDREEEWFHGDCVGISEARGRLLERNGEDYICPNCTI | -0.632 ± 0.14
GYDPNALYCICRQPHNNRFMICCDRTEEWFHGDCVGISEARGRLLERNGEDYICPNCTI | -0.782 ± 0.16
GYDPNALYCICRQPHNNRFMICCDRHEEWFHGDCVGISEARGRLLERNGEDYICPNCTI | -0.672 ± 0.21
GYDPNALYCICRQPHNNRFMICCDRQEEWFHGDCVGISEARGRLLERNGEDYICPNCTI | -0.985 ± 0.25
GYDPNALYCICRQPHNNRFMICCDRREEWFHGDCVGISEARGRLLERNGEDYICPNCTI | -1.02 ± 0.16
GYDPNALYCICRQPHNNRFMICCDRIEEWFHGDCVGISEARGRLLERNGEDYICPNCTI | -0.578 ± 0.22
GYDPNALYCICRQPHNNRFMICCDRDEEWFHGDCVGISEARGRLLERNGEDYICPNCTI | -0.808 ± 0.17
GYDPNALYCICRQPHNNRFMICCDRAEEWFHGDCVGISEARGRLLERNGEDYICPNCTI | -0.411 ± 0.13
GYDPNALYCICRQPHNNRFMICCDRYEEWFHGDCVGISEARGRLLERNGEDYICPNCTI | -0.794 ± 0.13
GYDPNALYCICRQPHNNRFMICCDRPEEWFHGDCVGISEARGRLLERNGEDYICPNCTI | -0.599 ± 0.17
GYDPNALYCICRQPHNNRFMICCDRFEEWFHGDCVGISEARGRLLERNGEDYICPNCTI | -1.06 ± 0.23
GYDPNALYCICRQPHNNRFMICCDRLEEWFHGDCVGISEARGRLLERNGEDYICPNCTI | -1.03 ± 0.13
GYDPNALYCICRQPHNNRFMICCDRGEEWFHGDCVGISEARGRLLERNGEDYICPNCTI | -0.72 ± 0.099
GYDPNALYCICRQPHNNRFMICDDRCEEWFHGDCVGISEARGRLLERNGEDYICPNCTI | -0.532 ± 0.22
GYDPNALYCICRQPHNNRFMICGDRCEEWFHGDCVGISEARGRLLERNGEDYICPNCTI | -0.864 ± 0.1
GYDPNALYCICRQPHNNRFMICHDRCEEWFHGDCVGISEARGRLLERNGEDYICPNCTI | -1 ± 0.24
GYDPNALYCICRQPHNNRFMICSDRCEEWFHGDCVGISEARGRLLERNGEDYICPNCTI | -0.594 ± 0.084
GYDPNALYCICRQPHNNRFMICLDRCEEWFHGDCVGISEARGRLLERNGEDYICPNCTI | -1.03 ± 0.1
GYDPNALYCICRQPHNNRFMICQDRCEEWFHGDCVGISEARGRLLERNGEDYICPNCTI | -0.821 ± 0.13
GYDPNALYCICRQPHNNRFMICWDRCEEWFHGDCVGISEARGRLLERNGEDYICPNCTI | -0.942 ± 0.27

Variant | abundance fitness
GYDPNALYCICRQPHNNRFMICEDRCEEWFHGDCVGISEARGRLLERNGEDYICPNCTI | -0.966 ± 0.14
GYDPNALYCICRQPHNNRFMICRDRCEEWFHGDCVGISEARGRLLERNGEDYICPNCTI | -0.792 ± 0.095
GYDPNALYCICRQPHNNRFMICKDRCEEWFHGDCVGISEARGRLLERNGEDYICPNCTI | -0.408 ± 0.099
GYDPNALYCICRQPHNNRFMICTDRCEEWFHGDCVGISEARGRLLERNGEDYICPNCTI | -0.918 ± 0.14
GYDPNALYCICRQPHNNRFMICPDRCEEWFHGDCVGISEARGRLLERNGEDYICPNCTI | -0.296 ± 0.11
GYDPNALYCICRQPHNNRFMICVDRCEEWFHGDCVGISEARGRLLERNGEDYICPNCTI | -1.08 ± 0.11
GYDPNALYCICRQPHNNRFMICYDRCEEWFHGDCVGISEARGRLLERNGEDYICPNCTI | -1.17 ± 0.17
GYDPNALYCICRQPHNNRFMICMDRCEEWFHGDCVGISEARGRLLERNGEDYICPNCTI | -1.26 ± 0.28
GYDPNALYCICRQPHNNRFMWCCDRCEEWFHGDCVGISEARGRLLERNGEDYICPNCTI | -0.582 ± 0.32
GYDPNALYCICRQPHNNRFMVCCDRCEEWFHGDCVGISEARGRLLERNGEDYICPNCTI | 0.132 ± 0.068
GYDPNALYCICRQPHNNRFMYCCDRCEEWFHGDCVGISEARGRLLERNGEDYICPNCTI | 0.036 ± 0.094
GYDPNALYCICRQPHNNRFMICCDRCIEWFHGDCVGISEARGRLLERNGEDYICPNCTI | -0.158 ± 0.072
GYDPNALYCICRQPHNNRFMICCDRCCEWFHGDCVGISEARGRLLERNGEDYICPNCTI | -0.237 ± 0.12
GYDPNALYCICRQPHNNRFMICCDRCGEWFHGDCVGISEARGRLLERNGEDYICPNCTI | -0.074 ± 0.072
GYDPNALYCICRQPHNNRFMICCDRCDEWFHGDCVGISEARGRLLERNGEDYICPNCTI | 0.012 ± 0.11
GYDPNALYCICRQPHNNRFMICCDRCKEWFHGDCVGISEARGRLLERNGEDYICPNCTI | 0.237 ± 0.068
GYDPNALYCICRQPHNNRFMICCDICEEWFHGDCVGISEARGRLLERNGEDYICPNCTI | -0.197 ± 0.11
GYDPNALYCICRQPHNNRFMICCDLCEEWFHGDCVGISEARGRLLERNGEDYICPNCTI | -0.057 ± 0.059
GYDPNALYCICRQPHNNRFMICCDKCEEWFHGDCVGISEARGRLLERNGEDYICPNCTI | 0.118 ± 0.065
GYDPNALYCICRQPHNNRFMICCDGCEEWFHGDCVGISEARGRLLERNGEDYICPNCTI | -0.085 ± 0.075
GYDPNALYCICRQPHNNRFMICCDMCEEWFHGDCVGISEARGRLLERNGEDYICPNCTI | -0.023 ± 0.054
GYDPNALYCICRQPHNNRFMICCDECEEWFHGDCVGISEARGRLLERNGEDYICPNCTI | 0.163 ± 0.13
GYDPNALYCICRQPHNNRFMICCDTCEEWFHGDCVGISEARGRLLERNGEDYICPNCTI | 0.039 ± 0.096

Variant | abundance fitness
GYDPNALYCICRQPHNNRFMICCDVCEEWFHGDCVGISEARGRLLERNGEDYICPNCTI | 0.063 ± 0.1
GYDPNALYCICRQPHNNRFMICCDSCEEWFHGDCVGISEARGRLLERNGEDYICPNCTI | -0.019 ± 0.043
GYDPNALYCICRQPHNNRFMICCDCCEEWFHGDCVGISEARGRLLERNGEDYICPNCTI | -0.191 ± 0.1
GYDPNALYCICRQPHNNRFMICCDNCEEWFHGDCVGISEARGRLLERNGEDYICPNCTI | 0.101 ± 0.12
GYDPNALYCICRQPHNNRFMICCDHCEEWFHGDCVGISEARGRLLERNGEDYICPNCTI | -0.032 ± 0.12
GYDPNALYCICRQPHNNRFMICCDWCEEWFHGDCVGISEARGRLLERNGEDYICPNCTI | -0.261 ± 0.1
GYDPNALYCICRQPHNNRFMICCDDCEEWFHGDCVGISEARGRLLERNGEDYICPNCTI | -0.027 ± 0.18
GYDPNALYCICRQPHNNRFMICCDQCEEWFHGDCVGISEARGRLLERNGEDYICPNCTI | 0.124 ± 0.061
GYDPNALYCICRQPHNNRFMICCDPCEEWFHGDCVGISEARGRLLERNGEDYICPNCTI | -0.052 ± 0.077
GYDPNALYCICRQPHNNRFMICCDACEEWFHGDCVGISEARGRLLERNGEDYICPNCTI | 0.125 ± 0.076
GYDPNALYCICRQPHNNRFMICCDFCEEWFHGDCVGISEARGRLLERNGEDYICPNCTI | -0.068 ± 0.075
GYDPNALYCICRQPHNNRFMIRCDRCEEWFHGDCVGISEARGRLLERNGEDYICPNCTI | 0.11 ± 0.078
GYDPNALYCICRQPHNNRFMIWCDRCEEWFHGDCVGISEARGRLLERNGEDYICPNCTI | 0.08 ± 0.074
GYDPNALYCICRQPHNNRFMITCDRCEEWFHGDCVGISEARGRLLERNGEDYICPNCTI | 0.185 ± 0.062
GYDPNALYCICRQPHNNRFMIECDRCEEWFHGDCVGISEARGRLLERNGEDYICPNCTI | 0.023 ± 0.096
GYDPNALYCICRQPHNNRFMIYCDRCEEWFHGDCVGISEARGRLLERNGEDYICPNCTI | 0.12 ± 0.14
GYDPNALYCICRQPHNNRFMIFCDRCEEWFHGDCVGISEARGRLLERNGEDYICPNCTI | 0.137 ± 0.12
GYDPNALYCICRQPHNNRFMIICDRCEEWFHGDCVGISEARGRLLERNGEDYICPNCTI | 0.07 ± 0.063
GYDPNALYCICRQPHNNRFMIQCDRCEEWFHGDCVGISEARGRLLERNGEDYICPNCTI | 0.075 ± 0.064
GYDPNALYCICRQPHNNRFMINCDRCEEWFHGDCVGISEARGRLLERNGEDYICPNCTI | 0.029 ± 0.18
GYDPNALYCICRQPHNNRFMIKCDRCEEWFHGDCVGISEARGRLLERNGEDYICPNCTI | 0.058 ± 0.055
GYDPNALYCICRQPHNNRFMIGCDRCEEWFHGDCVGISEARGRLLERNGEDYICPNCTI | 0.073 ± 0.073
GYDPNALYCICRQPHNNRFMIPCDRCEEWFHGDCVGISEARGRLLERNGEDYICPNCTI | 0.02 ± 0.069

Variant | abundance fitness
GYDPNALYCICRQPHNNRFMIVCDRCEEWFHGDCVGISEARGRLLERNGEDYICPNCTI | 0.269 ± 0.066
GYDPNALYCICRQPHNNRFMIHCDRCEEWFHGDCVGISEARGRLLERNGEDYICPNCTI | 0.056 ± 0.12
GYDPNALYCICRQPHNNRFMIACDRCEEWFHGDCVGISEARGRLLERNGEDYICPNCTI | 0.116 ± 0.09
GYDPNALYCICRQPHNNRFMIMCDRCEEWFHGDCVGISEARGRLLERNGEDYICPNCTI | 0.102 ± 0.068
GYDPNALYCICRQPHNNRFMISCDRCEEWFHGDCVGISEARGRLLERNGEDYICPNCTI | 0.023 ± 0.056
GYDPNALYCICRQPHNNRFMICCARCEEWFHGDCVGISEARGRLLERNGEDYICPNCTI | 0.139 ± 0.054
GYDPNALYCICRQPHNNRFMICCGRCEEWFHGDCVGISEARGRLLERNGEDYICPNCTI | 0.166 ± 0.051
GYDPNALYCICRQPHNNRFMICCRRCEEWFHGDCVGISEARGRLLERNGEDYICPNCTI | 0.138 ± 0.056
GYDPNALYCICRQPHNNRFMICCERCEEWFHGDCVGISEARGRLLERNGEDYICPNCTI | 0.026 ± 0.11
GYDPNALYCICRQPHNNRFMICCSRCEEWFHGDCVGISEARGRLLERNGEDYICPNCTI | -0.092 ± 0.068
GYDPNALYCICRQPHNNRFMICCNRCEEWFHGDCVGISEARGRLLERNGEDYICPNCTI | 0.196 ± 0.056
GYDPNALYCICRQPHNNRFMICCVRCEEWFHGDCVGISEARGRLLERNGEDYICPNCTI | 0.258 ± 0.074
GYDPNALYCICRQPHNNRFMICCTRCEEWFHGDCVGISEARGRLLERNGEDYICPNCTI | -0.032 ± 0.076
GYDPNALYCICRQPHNNRFMICCLRCEEWFHGDCVGISEARGRLLERNGEDYICPNCTI | -0.176 ± 0.059
GYDPNALYCICRQPHNNRFMICCCRCEEWFHGDCVGISEARGRLLERNGEDYICPNCTI | 0.048 ± 0.06
GYDPNALYCICRQPHNNRFMICCIRCEEWFHGDCVGISEARGRLLERNGEDYICPNCTI | -0.124 ± 0.12
GYDPNALYCICRQPHNNRFMICCKRCEEWFHGDCVGISEARGRLLERNGEDYICPNCTI | 0.192 ± 0.062
GYDPNALYCICRQPHNNRFMICCMRCEEWFHGDCVGISEARGRLLERNGEDYICPNCTI | 0.073 ± 0.068
GYDPNALYCICRQPHNNRFMICCWRCEEWFHGDCVGISEARGRLLERNGEDYICPNCTI | -0.227 ± 0.085
GYDPNALYCICRQPHNNRFMICCPRCEEWFHGDCVGISEARGRLLERNGEDYICPNCTI | 0.082 ± 0.064
GYDPNALYCICRQPHNNRFMICCYRCEEWFHGDCVGISEARGRLLERNGEDYICPNCTI | -0.073 ± 0.077
